± gives the standard deviation of the averaged measurements.
Assay: total protein half-life in vivo (active degradation + dilution); higher = more stable protein
[1] = E. coli NCM3722 delta-clpP delta-lon delta-hslV, growth: N-lim chemostat, doubling time 6 h
[2] = E. coli NCM3722 delta-clpP, growth: N-lim chemostat, doubling time 6 h
[3] = E. coli NCM3722 delta-hslV, growth: N-lim chemostat, doubling time 6 h
[4] = E. coli NCM3722 delta-lon, growth: N-lim chemostat, doubling time 6 h
[5] = E. coli NCM3722 delta-smpB, growth: N-lim chemostat, doubling time 6 h
[6] = wild type E. coli NCM3722, growth: C-lim chemostat, doubling time 3 h
[7] = wild type E. coli NCM3722, growth: C-lim chemostat, doubling time 6 h
[8] = wild type E. coli NCM3722, growth: C-lim chemostat, doubling time 12 h
[9] = wild type E. coli NCM3722, growth: N-lim chemostat, doubling time 6 h
[10] = wild type E. coli NCM3722, growth: N-lim chemostat, doubling time 12 h
[11] = wild type E. coli NCM3722, growth: P-lim chemostat, doubling time 6 h
[12] = wild type E. coli NCM3722, growth: P-lim chemostat, doubling time 12 h

Row | Sequence | total protein half-life in vivo [1] | total protein half-life in vivo [2] | total protein half-life in vivo [3] | total protein half-life in vivo [4] | total protein half-life in vivo [5] | total protein half-life in vivo [6] | total protein half-life in vivo [7] | total protein half-life in vivo [8] | total protein half-life in vivo [9] | total protein half-life in vivo [10] | total protein half-life in vivo [11] | total protein half-life in vivo [12]
1 | MKTFSDRWRQLDWDDIRLRINGKTAADVERALNASQLTRDDMMALLSPAASGYLEQLAQRAQRLTRQRFGNTVSFYVPLYLSNLCANDCTYCGFSMSNRIKRKTLDEADIARESAAIREMGFEHLLLVTGEHQAKVGMDYFRRHLPALREQFSSLQMEVQPLAETEYAELKQLGLDGVMVYQETYHEATYARHHLKGKKQDFFWRLETPDRLGRAGIDKIGLGALIGLSDNWRVDSYMVAEHLLWLQQHYWQSRYSVSFPRLRPCTGGIEPASIMDERQLVQTICAFRLLAPEIELSLSTRESPWFRDRVIPLAINNVSAFSKTQPGGYADNHPELEQFSPHDDRRPEAVAAALTAQGLQPVWKDWDSYLGRASQRL | 4.35 ± 0.4 h | 0.761 ± 0.12 h | 0.71 ± 0.041 h | 1.45 ± 0.13 h | 0.7458 ± 0.0057 h | 0.948 ± 0.075 h | 1.02 ± 0.03 h | 0.988 ± 0.12 h | 0.86 ± 0.0097 h | 1.08 ± 0.084 h | 1.09 ± 0.25 h | 1.93 ± 0.64 h
2 | MKTGMFTCGHQRLPIEHAFRDASELGYDGIEIWGGRPHAFAPDLKAGGIKQIKALAQTYQMPIIGYTPETNGYPYNMMLGDEHMRRESLDMIKLAMDMAKEMNAGYTLISAAHAGYLTPPNVIWGRLAENLSELCEYAENIGMDLILEPLTPYESNVVCNANDVLHALALVPSPRLFSMVDICAPYVQAEPVMSYFDKLGDKLRHLHIVDSDGASDTHYIPGEGKMPLRELMRDIIERGYEGYCTVELVTMYMNEPRLYARQALERFRALLPEDER | 7.09 h |  |  |  |  | > 4 h |  | 6.86 h |  |  |  | 
3 | MKTGSEFHVGIVGLGSMGMGAALSYVRAGLSTWGADLNSNACATLKEAGACGVSDNAATFAEKLDALLVLVVNAAQVKQVLFGETGVAQHLKPGTAVMVSSTIASADAQEIATALAGFDLEMLDAPVSGGAVKAANGEMTVMASGSDIAFERLAPVLEAVAGKVYRIGAEPGLGSTVKIIHQLLAGVHIAAGAEAMALAARAGIPLDVMYDVVTNAAGNSWMFENRMRHVVDGDYTPHSAVDIFVKDLGLVADTAKALHFPLPLASTALNMFTSASNAGYGKEDDSAVIKIFSGITLPGAKS | 5.94 h |  |  |  |  | 0.261 h | 0.509 h | 1.69 ± 1.5 h |  |  |  | 
4 | MKTIFTVGAVVLATCLLSGCVNEQKVNQLASNVQTLNAKIARLEQDMKALRPQIYAAKSEANRANTRLDAQDYFDCLRCLRMYAE | 7.01 h |  |  |  | 5.17 h |  |  | 6.54 h |  |  |  | > 16 h
5 | MKTIHDIRRSNARKLRDGVGGNSSFATMIDREPTQTSRFMGDGATKNIGDSMARHIEKCFDLPVGWLDQEHQTTNITKKPDVSITNKQITLVPVISWVQAGAWKEVGYSEVDLSTAETYPCPVPCGEMTYILRVIGDSMIDEYRPGDMIFVDPEVPACHGDDVIALMHDTGETTFKRLIEDGTQRYLKALNPNWPEPYIKINGNCSIIGTVIFSGKPRRYKIKA | 5.24 ± 0.42 h | 5.02 ± 0.3 h | 4.84 ± 0.77 h | 4.886 ± 0.017 h | 5.12 ± 0.24 h |  | 6.8 ± 0.23 h | 9.86 ± 0.61 h | 5.26 ± 0.76 h | 7.94 ± 0.96 h | 4.81 ± 0.62 h | 12.7 ± 2 h
6 | MKTLFSRLITVIACFFIFSAAWFCLWSISLHLVERPDMAVLLFPFGLRLGLMLQCPRGYWPVLLGAEWLLIYWLTQAVGLTHFPLLMIGSLLTLLPVALISRYRHQRDWRTLLLQGAALTAAALLQSLPWLWHGKESWNALLLTLTGGLTLAPICLVFWHYLANNTWLPLGPSLVSQPINWRGRHLVWYLLLFVISLWLQLGLPDELSRFTPFCLALPIIALAWHYGWQGALIATLMNAIALIASQTWRDHPVDLLLSLLVQSLTGLLLGAGIQRLRELNQSLQKELARNQHLAERLLETEESVRRDVARELHDDIGQTITAIRTQAGIVQRLAADNASVKQSGQLIEQLSLGVYDAVRRLLGRLRPRQLDDLTLEQAIRSLMREMELEGRGIVSHLEWRIDESALSENQRVTLFRVCQEGLNNIVKHADASAVTLQGWQQDERLMLVIEDDGSGLPPGSGQQGFGLTGMRERVTALGGTLHISCLHGTRVSVSLPQRYV | 5.18 ± 1.4 h | 5.44 ± 0.69 h | 6.91 h | 6.14 ± 0.34 h | 5.72 ± 0.14 h | 2.75 ± 0.13 h | 4.79 ± 0.62 h | 10 ± 2.2 h | 6.09 ± 0.24 h |  | 6.19 h | 
7 | MKTLGEFIVEKQHEFSHATGELTALLSAIKLGAKIIHRDINKAGLVDILGASGAENVQGEVQQKLDLFANEKLKAALKARDIVAGIASEEEDEIVVFEGCEHAKYVVLMDPLDGSSNIDVNVSVGTIFSIYRRVTPVGTPVTEEDFLQPGNKQVAAGYVVYGSSTMLVYTTGCGVHAFTYDPSLGVFCLCQERMRFPEKGKTYSINEGNYIKFPNGVKKYIKFCQEEDKSTNRPYTSRYIGSLVADFHRNLLKGGIYLYPSTASHPDGKLRLLYECNPMAFLAEQAGGKASDGKERILDIIPETLHQRRSFFVGNDHMVEDVERFIREFPDA [P0A993] | 4.22 ± 0.099 h | 3.02 ± 0.088 h | 3.76 ± 0.66 h | 3.84 ± 0.51 h | 3.21 ± 0.12 h | 2.93 ± 0.38 h | 5.02 ± 0.3 h | 8.6 ± 0.59 h | 3.19 ± 0.06 h | 4.68 ± 0.09 h | 5.796 ± 0.011 h | 10.6 ± 0.24 h
8 | MKTLIARHKAGEHIGICSVCSAHPLVIEAALAFDRNSTRKVLIEATSNQVNQFGGYTGMTPADFREFVFTIADKVGFARERIILGGDHLGPNCWQQENADAAMEKSVELVKEYVRAGFSKIHLDASMSCAGDPIPLAPETVAERAAVLCFAAESVATDCQREQLSYVIGTEVPVPGGEASAIQSVHITHVEDAANTLRTHQKAFIARGLTEALTRVIAIVVQPGVEFDHSNIIHYQPQEAQPLAQWIENTRMVYEAHSTDYQTRTAYWELVRDHFAILKVGPALTFALREAIFALAQIEQELIAPENRSGCLAVIEEVMLDEPQYWKKYYRTGFNDSLLDIRYSLSDRIRYYWPHSRIKNSVETMMVNLEGVDIPLGMISQYLPKQFERIQSGELSAIPHQLIMDKIYDVLRAYRYGCAE [P0C8J8] | 5.59 h |  |  |  |  |  | 2.97 h |  | > 8 h |  |  | 
9 | MKTLILFSTRDGQTREIASYLASELKELGIQADVANVHRIEEPQWENYDRVVIGASIRYGHYHSAFQEFVKKHATRLNSMPSAFYSVNLVARKPEKRTPQTNSYARKFLMNSQWRPDRCAVIAGALRYPRYRWYDRFMIKLIMKMSGGETDTRKEVVYTDWEQVANFAREIAHLTDKPTLK [P0ACB4] | 6.5 ± 0.98 h | 6.1 ± 0.4 h | 6.54 ± 0.68 h | 6.2 ± 0.14 h | 5.74 ± 0.11 h | 3.05 ± 0.23 h | 5.733 ± 0.054 h | 9.62 ± 0.39 h | 5.4517 ± 0.0046 h | 11.18 ± 0.03 h | 5.69 ± 0.12 h | 11.9 ± 0.72 h

Reference: the supplement of paper PMC11246515
